Reference: patent US20040233833A1, “Methods for identifying compounds with thrapeutic potential for treatment of central Neurodegenerative diseases resulting from abnormal protein or peptide accumulation” (priority 2001, published 2004)

Experiments:
[1] = target: proteasome β subunits (T, CT/PGPH) (Homo sapiens, UniProt P28072+P28074+Q99436); test: Affinity labeling of proteasome β subunits with 125I-YL3-VS in the presence of REGs; assay type: biochemical; details: mean±S.D.
Excerpt: To obtain estimates of substrate access to the proteasome's central chamber in the presence of REGγ and REGγ(K188E), the active site-directed probe, ^125I-YL3-VS, which covalently modifies all three active β-subunits in an activity dependent manner, was used. […] The phosphoimages show increased labeling of CT/PGPH and T subunits in the presence of REGγ and REGγ(K188E). The data further reveal that REGγ increased the rate of T-subunit labeling 4.7±2.6 (mean±S.D.) fold and the rate of CT/PGPH labeling 4.4±1.7 (mean±S.D.) fold over that seen with proteasome alone. Stimulation by the mutant REGγ(K188E) was greater, being 10.8±4.9 (mean±S.D.) fold for the T-subunit and 11.9±4.8 (mean±S.D.) fold for the CT/PGPH subunit. […] The finding that REGγ increased labeling of the CT and PGPH subunits was unexpected as the wild type activator suppresses hydrolysis of the CT substrate sLLVY (SEQ ID NO:1)-MCA.

[2] = target: T1, Human red blood cell proteasomes (Homo sapiens, UniProt P28072+P28074+Q99436); test: Activation of fluorogenic peptide hydrolysis by the proteasome in the presence of REG variants; assay type: biochemical
T1 construct: Human red blood cell proteasomes; from tissue; host or cells: human red blood cells

[3] = target: T2, proteasomes (Homo sapiens, UniProt P28072+P28074+Q99436); test: Proteasomal degradation of the fluorescein-tagged C31 peptide of APP; assay type: biochemical; details: result in words
Procedure: A 31-residue C-terminal peptide (C31) of APP, the transmembrane protein that gives rise to amyloid plaque forming Aβ peptides characteristic of Alzheimer's disease, was synthesized using routine peptide synthesis. A fluorescein tag was added to the peptide. C31 peptide is cytotoxic. See Lu et al. (2000), a Second Cytotoxic Proteolytic Peptide Derived from Amyloid Beta-Protein Precursor, Nat. Med. 6:397-404.
The C31 was incubated with proteasomes alone, proteasomes+REGγ, proteasome+REGγ(K188E) or proteasomes+REGα/β, and degradation was assayed as described in Example 8.

[4] = target: T2, proteasomes; test: Proteasomal degradation of fluorescein-labeled polyQ peptides (molecular exclusion chromatography); assay type: biochemical; details: proteasome + activator, 5 hr incubation
Procedure: The following peptides were synthesized using routine peptide synthesis:
Each peptide was incubated for 5 hr with proteasomes alone, proteasomes+REGγ, proteasome+REGγ(K188E) or proteasomes+REGα/β. Degradation was assayed by molecular exclusion chromatography using fluorescein as a signal (see FIG. 2). The degradation products were identified by HPLC-MS (FIG. 3). […] By contrast, in the presence of REGγ(K188E) the various polyQ peptides were degraded 5 to 10-fold faster.

[5] = target: T3, proteasome (Homo sapiens, UniProt P28072+P28074+Q99436); test: REGα(N146Y)/REGβ(N135Y) competition assay for relative proteasome affinity; assay type: binding; details: in terms of REGα(N146Y)/REGβ(N135Y) competition; wild-type REGγ 100
Excerpt: As a measure of the relative affinities of REGγ and the REGγLys188 mutants for the proteasome, a competition assay was used. See Li et al. (2000), The Proteasome Activator 11S REG or PA28: Chimeras Implicate Carboxyl-Terminal Sequences in Oligomerization and Proteasome Binding But Not in the Activation of Specific Proteasome Catalytic Subunits. J. Mol. Biol. 299:641-54. All REGγLys188 mutants were relatively resistant to REGα(N146Y)/REGβ(N135Y) competition with apparent proteasome affinities varying from 40% to 90% that of wild-type REGγ.

[6] = target: T3, proteasome; test: Proteasomal hydrolysis of natural peptides P21 and BBC1 (HPLC); assay type: biochemical; details: 21-residue peptide P21; result in words
Procedure: Proteasomal hydrolysis of a 21 -residue peptide (P21) and a 49-residue peptide (BBC1) were prepared as described by Zhang et al. (1998), Proteasome Activation by REG Molecules Lacking Homolog-specific Inserts, J. Biol. Chem. 273:9501-09. Digestion products were applied to a C18 HPLC column and separated with a gradient of 0-45% acetonitrile containing 0.1% trifluoroacetic acid. To identify the products derived from P21, fractions were collected manually, concentrated, and subjected to mass spectrometry.

[7] = Heptamer stability on rechromatography (Superdex 200 size exclusion column); assay type: physicochemical
Excerpt: To examine the effect of Lys188 substitution on REGγ heptamer stability, the wildtype and Lys 188 variant heptamers were rechromatographed on the Superdex 200 (26/60) size exclusion column used for purification. […] Replacement of Lys 188 by Pro or Phe severely affected the stability of REGγ heptamer.

[8] = target: T1, Human red blood cell proteasomes; test: Activation of fluorogenic peptide hydrolysis by the proteasome in the presence of REG variants; assay type: biochemical; remark: listed apart in the source
Procedure: Human red blood cell proteasomes (170 ng) were mixed with increasing amounts of purified REG variants. The reactions were started by adding 50 μl of 200 μMscu-LLVY-MCA, Boc-LRR-MCA, or Boc-LLE-βNA in 10 mM Tris, pH 7.5. After a 10 min incubation, the reaction was quenched with 200μl of cold 100% ethanol, and the released MCA or βNA ws measured fluometrically. Each data point represents the mean of three measurements from a single experiment. […] REGα (▪), REGγ(□), REGγ(K188E) or REGγ(K188D) (●), REGγ(K188H) (∘), REGγ(K188Q) or REGγ(K188N) (Δ), REGγ(K188A) (♦). The data for REGγ(K188E) and REGγ(K188D) and for REGγ(K188Q) and REGγ(K188N) were combined since their activities were indistinguishable.
Because each positive variant identified in the previous example included a mutation at Lys188, site-directed mutagenesis was used to generate a series of amino acid substitutions at this residue. Twelve mutants were constructed in which Lys188 of REGγ was changed to Ala, Arg, Asn, Asp, Cys, Gln, Glu, His, Ile, Phe, Pro, or Ser. Wild-type REGγ and the Lys 188 variants were expressed in E. coli, purified, and the activation specificity of each protein was measured using the diagnostic peptides LLVY (SEQ ID NO:1)-MCA, LRR-MCA, and LLE-βNA. Except for the K188R variant, all Lys 188 mutants stimulated the hydrolysis of LRR-MCA by the proteasome to the same extent or slightly better than wild-type REGγ. Substitution of negatively-charged Glu or Asp for the positively-charged Lys188 produced mutants with activation properties almost identical to REGα.
To determine the degree to which the activation specificity of REGγ(K188E/D) variants matches that of REGα, proteasomal cleavage of a series of fluorogenic peptides was measured in the presence of each activator.

Substance: γK188E: mutant REGγ in which Lys188 was changed to Glu
- Increase in rate of CT/PGPH labeling over proteasome alone [1]: 11.9±4.8 fold
- Increase in rate of T-subunit labeling over proteasome alone [1]: 10.8±4.9 fold
- Cleavage of peptides diagnostic for the CT-like or PGPH active sites ([2]; result in words): substantially more than REGγ
- Stimulation of cleavage (x-fold) AAF-MCA ([2]; substrate AAF-MCA): 4 x-fold
- Stimulation of cleavage (x-fold) DEVD-MCA ([2]; substrate DEVD(SEQ ID NO: 8)-MCA): 8 x-fold
- Stimulation of cleavage (x-fold) FSR-MCA ([2]; substrate FSR-MCA): 7 x-fold
- Stimulation of cleavage (x-fold) IEGR-MCA ([2]; substrate IEGR(SEQ ID NO: 5)-MCA): 2 x-fold
- Stimulation of cleavage (x-fold) IETD-MCA ([2]; substrate IETD(SEQ ID NO: 6)-MCA): 21 x-fold
- Stimulation of cleavage (x-fold) LGHD-MCA ([2]; substrate LGHD(SEQ ID NO: 7)-MCA): 10 x-fold
- Stimulation of cleavage (x-fold) LY-MCA ([2]; substrate LY-MCA): 3 x-fold
- Stimulation of cleavage (x-fold) VLK-MCA ([2]; substrate VLK-MCA): 6 x-fold
- Stimulation of cleavage (x-fold) YVAD-MCA ([2]; substrate YVAD(SEQ ID NO: 9)-MCA): 7 x-fold
- Degradation of C31 peptide by proteasomes [3]: extensively degraded
- % Degraded, substrate F1-EPQPQ [4]: 80%
- % Degraded, substrate F1-KSQPQ [4]: 80%
- % Degraded, substrate F1-QHQ [4]: 50%
- % Degraded, substrate F1-QPQ [4]: 50%
- % Degraded, substrate F1-QQQ [4]: >95%
- Relative affinity for proteasome [5]: 90
- Hydrolysis of P21 by the proteasome [6]: markedly increased
- Heptamers dissociated during the second gel filtration ([7]; Superdex 200): More than half
- Percent heptamer ([7]; after second gel filtration): 50%
- Activation properties compared with REGα ([8]; small fluorogenic peptides, result in words): virtually identical to REGα
- Stimulation of cleavage (x-fold) LLE ([8]; substrate LLE-βNA (PGPH site)): 9 x-fold
- Stimulation of cleavage (x-fold) LLVY ([8]; substrate LLVY-MCA (chymotrypsin-like site)): 14 x-fold
- Stimulation of cleavage (x-fold) LRR ([8]; substrate LRR-MCA (trypsin-like site)): 15 x-fold
